For ten molecules, Kd results are on record in the FLAb antibody collection (doi:10.1101/2023.12.08.570889).

The chains are these.
B1: unnamed (protein)
chain 1: EVQLLESGGGLVQPGGSLRLSCAASGFTFSQYGMDWVRQAPGKGLEWVSGIGPSGGSTVYADSVKGRFTISRDNSKNTLYLQMNSLRAEDTAVYYCARDGSAYYYAFDVWGQGTTVTVSS
chain 2: DIQMTQSPSSLSASVGDRVTITCQASQDISNYLNWYQQKPGKAPKLLIYDASNLETGVPSRFSGSGSGTDFTFTISSLQPEDIATYYCQQADSFPVTFGGGTKVEIK
B2: unnamed (protein)
chain 1: EVQLLESGGGLVQPGGSLRLSCAASGFTFSQYGMDWVRQAPGKGLEWVSGIGPSGGSTVYADSVKGRFTISRDNSKNTLYLQMNSLRAEDTAVYYCARDGPAYYYAFDYWGQGTTVTVSS
chain 2: DIQMTQSPSSLSASVGDRVTITCQASQDISNYLNWYQQKPGKAPKLLIYDASNLETGVPSRFSGSGSGTDFTFTISSLQPEDIATYYCQQADSFPVTFGGGTKVEIK
B3: unnamed (protein)
chain 1: EVQLLESGGGLVQPGGSLRLSCAASGFTFSQYGMDWVRQAPGKGLEWVSGIGPSGGSTVYADSVKGRFTISRDNSKNTLYLQMNSLRAEDTAVYYCTRDGPWYYYAFDVWGQGTTVTVSS
chain 2: DIQMTQSPSSLSASVGDRVTITCQASQDISNYLNWYQQKPGKAPKLLIYDASNLETGVPSRFSGSGSGTDFTFTISSLQPEDIATYYCQQADSFPVTFGGGTKVEIK
B4: unnamed (protein)
chain 1: EVQLLESGGGLVQPGGSLRLSCAASGFTFSQYGMDWVRQAPGKGLEWVSGIGPSGGSTVYADSVKGRFTISRDNSKNTLYLQMNSLRAEDTAVYYCTRDGPAYYYAFDYWGQGTTVTVSS
chain 2: DIQMTQSPSSLSASVGDRVTITCQASQDISNYLNWYQQKPGKAPKLLIYDASNLETGVPSRFSGSGSGTDFTFTISSLQPEDIATYYCQQADSFPVTFGGGTKVEIK
B5: unnamed (protein)
chain 1: EVQLLESGGGLVQPGGSLRLSCAASGFTFSQYGMDWVRQAPGKGLEWVSGIGPSGGSTVYADSVKGRFTISRDNSKNTLYLQMNSLRAEDTAVYYCTRDGPAWYYAFDYWGQGTTVTVSS
chain 2: DIQMTQSPSSLSASVGDRVTITCQASQDISNYLNWYQQKPGKAPKLLIYDASNLETGVPSRFSGSGSGTDFTFTISSLQPEDIATYYCQQADSFPVTFGGGTKVEIK
B6: unnamed (protein)
chain 1: EVQLLESGGGLVQPGGSLRLSCAASGFTFSQYGMDWVRQAPGKGLEWVSGIGPSGGSTVYADSVKGRFTISRDNSKNTLYLQMNSLRAEDTAVYYCARDGPAYYYGFDVWGQGTTVTVSS
chain 2: DIQMTQSPSSLSASVGDRVTITCQASQDISNYLNWYQQKPGKAPKLLIYDASNLETGVPSRFSGSGSGTDFTFTISSLQPEDIATYYCQQADSFPVTFGGGTKVEIK
B7: unnamed (protein)
chain 1: EVQLLESGGGLVQPGGSLRLSCAASGFTFSQYGMDWVRQAPGKGLEWVSGIGPSGGSTVYADSVKGRFTISRDNSKNTLYLQMNSLRAEDTAVYYCTRDGPSYYYGFDVWGQGTTVTVSS
chain 2: DIQMTQSPSSLSASVGDRVTITCQASQDISNYLNWYQQKPGKAPKLLIYDASNLETGVPSRFSGSGSGTDFTFTISSLQPEDIATYYCQQADSFPVTFGGGTKVEIK
B8: unnamed (protein)
chain 1: EVQLLESGGGLVQPGGSLRLSCAASGFTFSQYGMDWVRQAPGKGLEWVSGIGPSGGSTVYADSVKGRFTISRDNSKNTLYLQMNSLRAEDTAVYYCTRDGPAYYYAFDIWGQGTTVTVSS
chain 2: DIQMTQSPSSLSASVGDRVTITCQASQDISNYLNWYQQKPGKAPKLLIYDASNLETGVPSRFSGSGSGTDFTFTISSLQPEDIATYYCQQADSFPVTFGGGTKVEIK
B9: unnamed (protein)
chain 1: EVQLLESGGGLVQPGGSLRLSCAASGFTFSQYGMDWVRQAPGKGLEWVSGIGPSGGSTVYADSVKGRFTISRDNSKNTLYLQMNSLRAEDTAVYYCTRGGPSWYYAFDVWGQGTTVTVSS
chain 2: DIQMTQSPSSLSASVGDRVTITCQASQDISNYLNWYQQKPGKAPKLLIYDASNLETGVPSRFSGSGSGTDFTFTISSLQPEDIATYYCQQADSFPVTFGGGTKVEIK
B10: unnamed (protein)
chain 1: EVQLLESGGGLVQPGGSLRLSCAASGFTFSQYGMDWVRQAPGKGLEWVSGIGPSGGSTVYADSVKGRFTISRDNSKNTLYLQMNSLRAEDTAVYYCARDGPSYYYAFDVWGQGTTVTVSS
chain 2: DIQMTQSPSSLSASVGDRVTITCQASQDISNYLNWYQQKPGKAPKLLIYDASNLETGVPSRFSGSGSGTDFTFTISSLQPEDIATYYCQQADSFPVTFGGGTKVEIK

The target of the test is FXI. Put plainly: Kd (SPR).
Regarding B1, the Kd was 270 nM.
As to B2, the Kd is 106 nM.
B3 gave a Kd of 79.8 nM.
B4 registered a Kd of 147 nM.
Next, B5: 78.2 nM.
As for B6, the figure is 175 nM.
Next, B7: 95.3 nM; B8: 109 nM; B9: 210 nM.
With B10, the Kd is 134 nM.

Broadly, the Kd is the equilibrium constant for the complex coming apart.
